From article PMC5596342, “Activity-Related Conformational Changes in D,D-Carboxypeptidases Revealed by In Vivo Periplasmic Förster Resonance Energy Transfer Assay in Escherichia coli” (mBio, 2017) come the findings set out here.

Positions count from the first letter of the chain named. In names and notes the source's numbering stands.

The data set concerns the molecule itself. Description: FRET or BRET; spectrum-based periplasmic FRET (mNG donor, mCh acceptor, spectral unmixing, acceptor FRET efficiency EfA) in E. coli grown in Gb1 at 28°C, induced with 15 µM IPTG, fixed with 2.8% formaldehyde and 0.04% glutaraldehyde, measured in PBS in a spectrofluorimeter; where indicated cells treated with 2 µg/ml amdinocillin or 1 µg/ml aztreonam during induction; cut-off for interaction EfA above 1.4%. In general terms: Bioluminescence resonance energy transfer reports proximity on the nanometre scale.

B1: PBP6a (D,D-carboxypeptidase, dacC), fusions mNG-PBP6a and mCh-PBP6a (enzyme, Escherichia coli, UniProt P08506 28-400, looked up)
chain: AEQTVEAPSVDARAWILMDYASGKVLAEGNADEKLDPASLTKIMTSYVVGQALKADKIKLTDMVTVGKDAWATGNPALRGSSVMFLKPGDQVSVADLNKGVIIQSGNDACIALADYVAGSQESFIGLMNGYAKKLGLTNTTFQTVHGLDAPGQFSTARDMALLGKALIHDVPEEYAIHKEKEFTFNKIRQPNRNRLLWSSNLNVDGMKTGTTAGAGYNLVASATQGDMRLISVVLGAKTDRIRFNESEKLLTWGFRFFETVTPIKPDATFVTQRVWFGDKSEVNLGAGEAGSVTIPRGQLKNLKASYTLTEPQLTAPLKKGQVVGTIDFQLNGKSIEQRPLIVMENVEEGGFFGRVWDFVMMKFHQWFGSWFS
notes: PBP6a (dacC) of Escherichia coli; construct details in Text S7 and S8; One molecule for the two differently tagged copies; also called FP-PBP6a; source: E. coli, expressed from plasmids pSAV057 and pTHV037 (15 µM IPTG), in the periplasm of fixed cells; not shown: mNeonGreen (donor copy) or mCherry (acceptor copy), N-terminal, kept
For B1, the “EfA (acceptor FRET efficiency)” value was 3.2%.

B2: PBP6a^S66G active-site mutant, fusions mNG-PBP6a^S66G and mCh-PBP6a^S66G (enzyme, Escherichia coli, UniProt P08506 28-400, looked up)
chain: B1 chain with S39G
notes: PBP6a (dacC) of Escherichia coli with the active-site serine 66 changed to glycine; One molecule for the two differently tagged copies; source: E. coli, expressed from plasmids pSAV057 and pTHV037, in the periplasm of fixed cells; not shown: mNeonGreen (donor copy) or mCherry (acceptor copy), N-terminal, kept
As to B2, the “EfA (acceptor FRET efficiency)” value was 3.8%.

B3: PBP6b^S63G active-site mutant, fusions mNG-PBP6b^S63G and mCh-PBP6b^S63G (enzyme, Escherichia coli, UniProt P33013 22-388, looked up)
chain: AENIPFSPQPPEIHAGSWVLMDYTTGQILTAGNEHQQRNPAGLTKLMTGYVVDRAIDSHRITPDDIVTVGRDAWAKDNPVFVGSSLMFLKEGDRVSVRDLSRGLIVDSGNDACVALADYIAGGQRQFVEMMNNYAEKLHLKDTHFETVHGLDAPGQHSSAYDLAVLSRAIIHGEPEFYHMYSEKSLTWNGITQQNRNGLLWDKTMNVDGLKTGHTSGAGFNLIASAVDGQRRLIAVVMGADSAKGREEEARKLLRWGQQNFTTVQILHRGKKVGTERIWYGDKENIDLGTEQEFWMVLPKAEIPHIKAKYTLDGKELTAPISAHQRVGEIELYDRDKQVAHWPLVTLESVGEGSMFSRLSDYFHHKA
notes: PBP6b (dacD) of Escherichia coli with the active-site serine 63 changed to glycine; One molecule for the two differently tagged copies; source: E. coli, expressed from plasmids pSAV057 and pTHV037, in the periplasm of fixed cells; not shown: mNeonGreen (donor copy) or mCherry (acceptor copy), N-terminal, kept
In the case of B3, the “EfA (acceptor FRET efficiency)” value was 2%.

B4: PBP5 (D,D-carboxypeptidase, dacA), fluorescent-protein fusions mNG-PBP5 and mCh-PBP5 (enzyme, Escherichia coli, UniProt P0AEB2 30-403, looked up)
chain: DDLNIKTMIPGVPQIDAESYILIDYNSGKVLAEQNADVRRDPASLTKMMTSYVIGQAMKAGKFKETDLVTIGNDAWATGNPVFKGSSLMFLKPGMQVPVSQLIRGINLQSGNDACVAMADFAAGSQDAFVGLMNSYVNALGLKNTHFQTVHGLDADGQYSSARDMALIGQALIRDVPNEYSIYKEKEFTFNGIRQLNRNGLLWDNSLNVDGIKTGHTDKAGYNLVASATEGQMRLISAVMGGRTFKGREAESKKLLTWGFRFFETVNPLKVGKEFASEPVWFGDSDRASLGVDKDVYLTIPRGRMKDLKASYVLNSSELHAPLQKNQVVGTINFQLDGKTIEQRPLVVLQEIPEGNFFGKIIDYIKLMFHHWFG
notes: PBP5 (dacA) of Escherichia coli; the FP is fused to the N terminus; construct details in Text S7 and S8; One molecule for the two differently tagged copies (mNG-PBP5 and mCh-PBP5), each chain carrying only one of the two fluorescent proteins; PDB 5J8X is a soluble form that lacks the C-terminal helix; also called FP-PBP5; source: E. coli, expressed from plasmid pSAV057 or pTHV037 (15 µM IPTG), in …
As for B4, the “EfA (acceptor FRET efficiency)” value was determined as 2%.

B5: PBP5^S44G active-site mutant, fusions mNG-PBP5^S44G and mCh-PBP5^S44G (enzyme, Escherichia coli, UniProt P0AEB2 30-403, looked up)
chain: B4 chain with S44G
notes: PBP5 (dacA) of Escherichia coli with the active-site change of Ser to Gly at position 44; One molecule for the two differently tagged copies; also called FP-PBP5^S44G; source: E. coli ΔdacA strain, expressed from plasmids pSAV057 and pTHV037, in the periplasm of fixed cells; not shown: mNeonGreen (donor copy) or mCherry (acceptor copy), N-terminal, kept
As for B5, the “EfA (acceptor FRET efficiency)” value was 5.4%.
